Measurements: publication PMC3897551

Target: tubulin dimers
Assay: MST

tubulin dimers, sequence (P68363 whole entry, chain 1 of 2): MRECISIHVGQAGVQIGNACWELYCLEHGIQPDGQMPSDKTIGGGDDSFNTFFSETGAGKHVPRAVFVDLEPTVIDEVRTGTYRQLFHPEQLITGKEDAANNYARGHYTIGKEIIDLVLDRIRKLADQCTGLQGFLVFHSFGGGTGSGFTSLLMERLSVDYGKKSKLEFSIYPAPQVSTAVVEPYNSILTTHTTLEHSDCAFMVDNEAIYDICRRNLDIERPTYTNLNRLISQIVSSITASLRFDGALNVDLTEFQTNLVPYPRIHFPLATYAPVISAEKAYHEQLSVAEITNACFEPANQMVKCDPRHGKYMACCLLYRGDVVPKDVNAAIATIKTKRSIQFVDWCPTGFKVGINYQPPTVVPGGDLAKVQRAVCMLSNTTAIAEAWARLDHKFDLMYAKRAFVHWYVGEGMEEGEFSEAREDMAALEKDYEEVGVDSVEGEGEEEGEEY
tubulin dimers, sequence (A8K068 whole entry, chain 2 of 2, further chain): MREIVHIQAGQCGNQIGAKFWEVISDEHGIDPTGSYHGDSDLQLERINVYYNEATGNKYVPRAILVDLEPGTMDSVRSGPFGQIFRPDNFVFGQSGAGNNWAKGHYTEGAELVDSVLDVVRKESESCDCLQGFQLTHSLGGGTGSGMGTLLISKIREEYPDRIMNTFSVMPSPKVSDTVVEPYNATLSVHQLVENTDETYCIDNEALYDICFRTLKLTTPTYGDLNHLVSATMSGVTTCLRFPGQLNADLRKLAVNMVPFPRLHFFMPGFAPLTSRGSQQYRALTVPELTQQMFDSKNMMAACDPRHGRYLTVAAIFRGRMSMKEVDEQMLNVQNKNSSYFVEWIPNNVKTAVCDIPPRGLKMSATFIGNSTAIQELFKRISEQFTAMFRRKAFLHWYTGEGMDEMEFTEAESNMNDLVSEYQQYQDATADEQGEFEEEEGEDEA

B1: GMΔNT phosphorylated by Aurora B/INCENP, Q91636 187-730 (domain or fragment)
chain: GRNNQGRRKSNIVKEMEKMKNKREEQRAQNYERRMKRAQDYDTSVPNWEFGKMIKEFRATMDCHRISMADPAEEHRICVCVRKRPLNKQELSKKEIDIISVPSKNIVLVHEPKLKVDLTKYLENQAFRFDFSFDETATNEVVYRFTARPLVQSIFEGGKATCFAYGQTGSGKTHTMGGDFSGKSQNVSKGVYAFASRDVFLLLDQPRYKHLDLDVFVTFFEIYNGKVFDLLNKKTKLRVLEDAKQEVQVVGLLEKQVISADDVFKMIEIGSACRTSGQTFANTSSSRSHACLQIILRRGSKLHGKFSLVDLAGNERGVDTASADRITRMEGAEINRSLLALKECIRALGQNKSHTPFRESKLTQILRDSFIGENSRTCMIAMLSPGFNSCEYTLNTLRYADRVKELSPQNAETNDDNLQMEDSGGSHASIEGLQLQDDFLLKDEELSTHNSFQDALNRVGELEDKAVDELRELVQKEPEWTNLLQMTEQPDYDLENFVMQAEYLIQERSKVLIALGDSINSLRLALQVEEQASKQISKKKRSNK
modifications: here or on the partner: phosphorylated by Aurora B/INCENP (S196 is retained in this region)
fold increase in Kd against non-phosphorylated GMΔNT: 16 fold
